Test: Pore exclusion gradient gel electrophoresis of peptide/lipid complexes
Format: physicochemical
Details: range over complexes, ratio not stated
Protocol: Pore exclusion electrophoresis was performed on the resulting peptide/lipid complexes (FIG. 7), on 4-25% olyacrylamide gels using non-denaturing conditions for 24 to 36 hours. Gels were fixed and stained in the presence of 4% formaldehyde. DMPC is mixed with a trace of fluorescent marker (NBD). Different ratios of protein:lipid (1:1, 1:2.5, 1:5, 1:7.5) were incubated for 24-36 hours.

Apo A-I: apolipoprotein A-I, major HDL apoprotein component, isolated from human serum
Stokes diameter: 80-200 Å

— patent publication US4643988A, “Amphipathic peptides” (Research Corporation, priority 1984, dated 1987)
